The nature of data set [1]: CPT-11 conversion to SN-38, fluorescent HPLC detection, conditioned media of transiently expressed BChE variants. In kind it is biochemical. The settings on record: for Fold improvement in CPT-11 conversion: compared to wild-type butyrylcholinesterase, conditioned media exposed to 20 mM CPT-11 for 72 hours at 37° C., SN-38 by HPLC, conservative values; for CPT-11 conversion to SN-38 (SN-38 formation by HPLC), in words: conditioned media, 20 mM CPT-11, 72 hours, 37° C., versus mock / wild-type. The method, then: Butyrylcholinesterase variants were assayed for CPT-11 conversion activity using fluorescent High Performance Liquid Chromotography (HPLC) detection of SN-38 formation as described in Dodds and Rivory, Mol. Pharmacol. 56: 1346-1353 (1999), which is incorporated herein by reference. Briefly, conditioned media from transiently expressed BChE variants were exposed to 20 mM CPT-11 for 72 hours at 37° C. and analyzed by HPLC for SN-38 formation (peak at about 4 minutes column retention time).

For data set [2] the following is noted: cited from earlier work; for Km: Humerickhouse et al. 2000, read-out: Km (CPT-11 conversion).
A short description of data set [3]: BChE-mediated CPT-11 hydrolysis, SN38 quantitated by reverse-phase HPLC with fluorescence detection; Km by Hofstee plot. In kind it is biochemical. The settings on record: for increase in CPT-11 hydrolysis over wild-type BChE: SN38 peak AUC, wild type 20 μg, BChE.4-1 0.05 μg; for improvement in the Km for CPT-11: versus wild-type / native serum BChE. The method, then:
BChE plasmid variants were expressed transiently in the human embryonic kidney cell line 293T and assayed for activity at 72 hours post-transfection. Primary screening of variants was performed by indirect measurement of enzymatic activation of CPT-11 (FIG. 2) in SW48 colon carcinoma cell cytotoxicity assays. […] Functional hits identified in these assays were characterized by sequence analysis of the corresponding DNA from the original preps. […] Enzyme was incubated at 37° C. for 24 hours with CPT-11 over a range of concentrations from 1-80 μM. […] Velocity (v) is in light absorbance units at 540 nm. Substrate concentration [s] is μM CPT-11.
Samples were acidified and resolved by reverse-phase HPLC on a NovaPak C18 column to separate SN38 from unactivated CPT-11. SN38 peak area under the curve (AUC) was used to compare CPT-11 activation by the wild-type enzyme to the optimized BChE.4-1 variant.

“And” between values parts separate entries of the source, which are not always exact repeats. Identical values can stand only once. “Also recorded” adds a separate entry of the source. Like-named read-outs stand apart in the source and are kept apart here.

By Km is commonly meant the substrate concentration at which the rate is half of its maximum.

In the case of F227A/L286H, in data set [1], the “Fold improvement in CPT-11 conversion” value is >35 fold and the “CPT-11 conversion to SN-38 (SN-38 formation by HPLC), in words” value (“CPT-11 conversion … in words” for short) is “increased CPT-11 conversion to SN-38”.

In the case of F227A/L286S, the “Fold improvement in CPT-11 conversion” value in data set [1] is on record as >50 fold; in data set [1] (listed as F227A/L268S), ≥ 50 fold. Besides, the “CPT-11 conversion … in words” value in data set [1] is “significant conversion; also recorded: increased CPT-11 conversion to SN-38”.

Regarding hCE-1, in data set [2], the Km was 43 µM.

B1: hCE-2 (protein, UniProt O00748 27-559, looked up)
Cocaine esterase: QDSASPIRTTHTGQVLGSLVHVKGANAGVQTFLGIPFAKPPLGPLRFAPPEPPESWSGVRDGTTHPAMCLQDLTAVESEFLSQFNMTFPSDSMSEDCLYLSIYTPAHSHEGSNLPVMVWIHGGALVFGMASLYDGSMLAALENVVVVIIQYRLGVLGFFSTGDKHATGNWGYLDQVAALRWVQQNIAHFGGNPDRVTIFGESAGGTSVSSLVVSPISQGLFHGAIMESGVALLPGLIASSADVISTVVANLSACDQVDSEALVGCLRGKSKEEILAINKPFKMIPGVVDGVFLPRHPQELLASADFQPVPSIVGVNNNEFGWLIPKVMRIYDTQKEMDREASQAALQKMLTLLMLPPTFGDLLREEYIGDNGDPQTLQAQFQEMMADSMFVIPALQVAHFQCSRAPVYFYEFQHQPSWLKNIRPPHMKADHGDELPFVFRSFFGGNYIKFTEEEEQLSRKMMKYWANFARNGNPNGEGLPHWPLFDQEEQYLQLNLQPAVGRALKAHRLQFWKKALPQKIQELEEPEERHTEL
On to B1, for which the “catalytic efficiency relative to hCE-1” value in data set [2] (CPT-11 conversion) is 60 fold. In data set [2], the Michaelis constant (Km) was 3.4 µM. Moreover, the “rate of conversion of CPT-11 to SN38 relative to hCE-1” value in data set [2] (at pharmacologically relevant concentrations of the drug (~1-10 μM)) is 25-30 fold.

B2: F227A (protein)
chain: EDDIIIATKNGKVRGMNLTVFGGTVTAFLGIPYAQPPLGRLRFKKPQSLTKWSDIWNATKYANSCCQNIDQSFPGFHGSEMWNPNTDLSEDCLYLNVWIPAPKPKNATVLIWIYGGGFQTGTSSLHVYDGKFLARVERVIVVSMNYRVGALGFLALPGNPEAPGNMGLFDQQLALQWVQKNIAAFGGNPKSVTLFGESAGAASVSLHLLSPGSHSLFTRAILQSGSXNAPWAVTSLYEARNRTLNLAKLTGCSRENETEIIKCLRNKDPQEILLNEAFVVPYGTPLSVNFGPTVDGDFLTDMPDILLELGQFKKTQILVGVNKDEGTAFLVYGAPGFSKDNNSIITRKEFQEGLKIFFPGVSEFGKESILFHYTDWVDDQRPENYREALGDVVGDYNFICPALEFTKKFSEWGNNAFFYYFEHRSSKLPWPEWMGVMHGYEIEFVFGLPLERRDNYTKAEEILSRSIVKRWANFAKYGNPNETQNNSTSWPVFKSTEQKYLTLNTESTRIMTKLRAQQCRFWTSFFPKVLEMTGNIDEAEWEWKAGFHRWNNYMMDWKNQFNDYTSKKESCVGL
modifications: synthetic butyrylcholinesterase variant; VARIANT 227: Xaa = Ala
In the case of B2, the “CPT-11 conversion … in words” value in data set [1] is reported as “produced a small amount of SN-38; also recorded: increased CPT-11 conversion to SN-38”.

B3: F227A/L286W (protein)
chain: EDDIIIATKNGKVRGMNLTVFGGTVTAFLGIPYAQPPLGRLRFKKPQSLTKWSDIWNATKYANSCCQNIDQSFPGFHGSEMWNPNTDLSEDCLYLNVWIPAPKPKNATVLIWIYGGGFQTGTSSLHVYDGKFLARVERVIVVSMNYRVGALGFLALPGNPEAPGNMGLFDQQLALQWVQKNIAAFGGNPKSVTLFGESAGAASVSLHLLSPGSHSLFTRAILQSGSANAPWAVTSLYEARNRTLNLAKLTGCSRENETEIIKCLRNKDPQEILLNEAFVVPYGTPWSVNFGPTVDGDFLTDMPDILLELGQFKKTQILVGVNKDEGTAFLVYGAPGFSKDNNSIITRKEFQEGLKIFFPGVSEFGKESILFHYTDWVDDQRPENYREALGDVVGDYNFICPALEFTKKFSEWGNNAFFYYFEHRSSKLPWPEWMGVMHGYEIEFVFGLPLERRDNYTKAEEILSRSIVKRWANFAKYGNPNETQNNSTSWPVFKSTEQKYLTLNTESTRIMTKLRAQQCRFWTSFFPKVLEMTGNIDEAEWEWKAGFHRWNNYMMDWKNQFNDYTSKKESCVGL
modifications: synthetic butyrylcholinesterase variant
Take B3: in data set [1], the “Fold improvement in CPT-11 conversion” value is recorded as >42 fold and the “CPT-11 conversion … in words” value is recorded as “increased CPT-11 conversion to SN-38”.

B4: F227A/T284A (protein)
chain: EDDIIIATKNGKVRGMNLTVFGGTVTAFLGIPYAQPPLGRLRFKKPQSLTKWSDIWNATKYANSCCQNIDQSFPGFHGSEMWNPNTDLSEDCLYLNVWIPAPKPKNATVLIWIYGGGFQTGTSSLHVYDGKFLARVERVIVVSMNYRVGALGFLALPGNPEAPGNMGLFDQQLALQWVQKNIAAFGGNPKSVTLFGESAGAASVSLHLLSPGSHSLFTRAILQSGSXNAPWAVTSLYEARNRTLNLAKLTGCSRENETEIIKCLRNKDPQEILLNEAFVVPYGXPLSVNFGPTVDGDFLTDMPDILLELGQFKKTQILVGVNKDEGTAFLVYGAPGFSKDNNSIITRKEFQEGLKIFFPGVSEFGKESILFHYTDWVDDQRPENYREALGDVVGDYNFICPALEFTKKFSEWGNNAFFYYFEHRSSKLPWPEWMGVMHGYEIEFVFGLPLERRDNYTKAEEILSRSIVKRWANFAKYGNPNETQNNSTSWPVFKSTEQKYLTLNTESTRIMTKLRAQQCRFWTSFFPKVLEMTGNIDEAEWEWKAGFHRWNNYMMDWKNQFNDYTSKKESCVGL
modifications: synthetic butyrylcholinesterase variant; VARIANT 227: Xaa = Ala; VARIANT 284: Xaa = Ala
As for B4, in data set [1], the “Fold improvement in CPT-11 conversion” value is recorded as >7 fold and the “CPT-11 conversion … in words” value is “increased CPT-11 conversion to SN-38”.

B5: 4-1 variant (protein)
chain: EDDIIIATKNGKVRGMNLTVFGGTVTAFLGIPYAQPPLGRLRFKKPQSLTKWSDIWNATKYANSCCQNIDQSFPGFFGSEMWNPNTDLSEDCLYLNVWIPAPKPKNATVLIWIYGGGFQTGTSSLHVYDGKFLARVERVIVVSMNYRVGALGFLALPGNPEAPGNMGLFDQQLALQWVQKNIAAFGGNPKSVTLFGESAGAASVSLHLLSPGSHSLFTRAILQSGSXNAPWAVTSLYEARNRTLNLAKLTGCSRENETEIIKCLRNKDPQEILLNEAFVVPYGTNLSVNFGPTVDGDFLTDMPDILLELGQFKKTQILVGVNKDEGTAFLAYGAPGFSKDNNSIITRKEFQEGLKIFFPGVSEFGKESILFHYTDWVDDQRPENYREALGDVVGDYNFICPALEFTKKFSEWGNNAFFYYFEHRSSKLPWPEWMGVMHGYEIEFVFGLPLERRDNYTKAEEILSRSIVKRWANFAKYGNPNETQNNSTSWPVFKSTEQKYLTLNTESTRIMTKLRAQQCRFWTSFFPKVLEMTGNIDEAEWEWKAGFHRWNNYMMDWKNQFNDYTSKKESCVGL
modifications: synthetic butyrylcholinesterase variant; VARIANT 227: Xaa = Ala
For the molecule B5, in data set [3] (37° C., 24 hours, CPT-11 1-80 μM, Hofstee plot), the Michaelis-Menten constant (Km) was ~7 µM and 6.9 µM. For the same molecule, the “increase in CPT-11 hydrolysis over wild-type BChE” value in data set [3] (37° C., 24 hours) is > 3000 fold; in data set [3] (37° C., 24 hours, listed as H77F, F227A, P285N, V331A) it was “at least a three thousand-fold”; in data set [3] (37° C., 24 hours, listed as SEQ ID NO: 180) it was “at least a three thousand-fold”. The “improvement in the Km for CPT-11” value was 5-6 fold in data set [3]; 5-6 fold and > 5 fold in data set [3] (listed as BChE variant 4-1).

B6: F227A/S287P (protein)
chain: EDDIIIATKNGKVRGMNLTVFGGTVTAFLGIPYAQPPLGRLRFKKPQSLTKWSDIWNATKYANSCCQNIDQSFPGFHGSEMWNPNTDLSEDCLYLNVWIPAPKPKNATVLIWIYGGGFQTGTSSLHVYDGKFLARVERVIVVSMNYRVGALGFLALPGNPEAPGNMGLFDQQLALQWVQKNIAAFGGNPKSVTLFGESAGAASVSLHLLSPGSHSLFTRAILQSGSANAPWAVTSLYEARNRTLNLAKLTGCSRENETEIIKCLRNKDPQEILLNEAFVVPYGTPLXVNFGPTVDGDFLTDMPDILLELGQFKKTQILVGVNKDEGTAFLVYGAPGFSKDNNSIITRKEFQEGLKIFFPGVSEFGKESILFHYTDWVDDQRPENYREALGDVVGDYNFICPALEFTKKFSEWGNNAFFYYFEHRSSKLPWPEWMGVMHGYEIEFVFGLPLERRDNYTKAEEILSRSIVKRWANFAKYGNPNETQNNSTSWPVFKSTEQKYLTLNTESTRIMTKLRAQQCRFWTSFFPKVLEMTGNIDEAEWEWKAGFHRWNNYMMDWKNQFNDYTSKKESCVGL
modifications: synthetic butyrylcholinesterase variant; VARIANT 227: Xaa = Ala; VARIANT 287: Xaa = Pr0
On to B6, for which, in data set [1], the “Fold improvement in CPT-11 conversion” value is on record as >6 fold and the “CPT-11 conversion … in words” value is on record as “increased CPT-11 conversion to SN-38”.

These data come from patent publication US20050136044A1, “Butyrylcholinesterase variants that alter the activity of chemotherapeutic agents” (priority 2003, published 2005).
